Numbering of substitutions follows the chain as printed.
B1: plasmin-inhibiting polypeptide comprising the amino acid sequence set forth in SEQ ID NO:4 (designed binder)
chain: NAEICLLPLDTGPCRARLLRYYYDRYTQSCRQFLYGGCEGNANNFYTWEACDDACWRIEKVPK
B2: plasmin-inhibiting polypeptide comprising the amino acid sequence set forth in SEQ ID NO:6 (designed binder)
chain: B1 chain with T11Y
B3: plasmin-inhibiting polypeptide comprising the amino acid sequence set forth in SEQ ID NO:5 (designed binder)
chain: NAEICLLPLDYGPCRARLLRYYYDRYTQSCRQFLYGGCEGNANNFYTWEACDDACWRIEK
B4: plasmin-inhibiting polypeptide comprising the amino acid sequence set forth in SEQ ID NO:3 (designed binder)
chain: B3 chain with Y11T

target: human plasmin (human, UniProt P00747 97-810, limits assumed); assay: cell-based or functional assay
Sequence (P00747 97-810 limits assumed): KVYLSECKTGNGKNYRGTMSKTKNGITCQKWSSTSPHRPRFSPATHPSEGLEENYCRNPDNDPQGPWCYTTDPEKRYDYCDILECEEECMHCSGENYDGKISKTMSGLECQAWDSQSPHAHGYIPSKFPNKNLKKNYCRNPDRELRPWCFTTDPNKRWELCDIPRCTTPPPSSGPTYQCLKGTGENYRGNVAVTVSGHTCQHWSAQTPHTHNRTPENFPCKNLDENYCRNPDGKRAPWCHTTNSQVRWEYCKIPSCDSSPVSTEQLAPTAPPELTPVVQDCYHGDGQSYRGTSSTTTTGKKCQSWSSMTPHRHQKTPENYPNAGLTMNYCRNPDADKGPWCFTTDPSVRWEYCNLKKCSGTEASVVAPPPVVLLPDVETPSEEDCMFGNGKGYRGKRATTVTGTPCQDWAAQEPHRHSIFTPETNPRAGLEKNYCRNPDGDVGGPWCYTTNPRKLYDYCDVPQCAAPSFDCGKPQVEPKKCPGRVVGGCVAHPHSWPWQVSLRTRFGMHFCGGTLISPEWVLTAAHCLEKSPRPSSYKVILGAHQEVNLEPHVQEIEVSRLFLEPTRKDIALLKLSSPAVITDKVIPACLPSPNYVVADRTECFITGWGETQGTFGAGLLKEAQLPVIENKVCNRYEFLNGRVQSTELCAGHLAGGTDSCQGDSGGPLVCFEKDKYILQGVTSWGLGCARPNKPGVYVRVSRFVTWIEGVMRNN

Binder	IC50 (nM), inhibition of plasmin activity on chromogenic substrate S2251 [nM]
B1	0.8
B2	1.8
B3	3.4
B4	1.8

— patent US20140288000A1 (University of California, published 2014)
